Reference: WO2018225033A1

Key:
[1] = molecular target: FcyR; test: cell-based or functional assay
[2] = molecular target: rabbit Fc-tagged recombinant extracellular human ICOS (human) (UniProt Q9Y6W8); test: SPR, Biacore T200, 1:1 kinetics model, rabbit Fc-tagged extracellular human ICOS
[3] = molecular target: rabbit Fc-tagged recombinant extracellular human ICOS (human) (UniProt Q9Y6W8); test: SPR, Biacore; reference is human ICOS-L binding to dimeric human ICOS (FIG. 15B)

UniProt Q9Y6W8, sequence (Q9Y6W8 21-140): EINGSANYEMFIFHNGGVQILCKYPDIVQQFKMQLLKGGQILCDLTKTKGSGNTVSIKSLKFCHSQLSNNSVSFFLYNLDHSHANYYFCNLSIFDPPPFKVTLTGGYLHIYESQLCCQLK

B1: H2L5 IgG4PE (antibody, V domains shown)
VH: QVQLVQSGAEVKKPGSSVKVSCKASGYTFTDYAMHWVRQAPGQGLEWMGLISIYSDHTNYNQKFQGRVTITADKSTSTAYMELSSLRSEDTAVYYCGRNNYGNYGWYFDVWGQGTTVTVSS
VL: EIVLTQSPATLSLSPGERATLSCSASSSVSYMHWYQQKPGQAPRLLIYDTSKLASGIPARFSGSGSGTDYTLTISSLEPEDFAVYYCFQGSGYPYTFGQGTKLEIK
Question: B1 was tested. Which IFN-γ induction in activated human PBMC assay [1] did it give?
Answer: > 2 fold

Question: And the IFN-γ induction in modified mixed lymphocyte reaction [1]?
Answer: > 2 fold

Question: And the Kd [2]?
Answer: 1.34 nM

Question: And the fold higher affinity than the ICOS-L/ICOS interaction [3]?
Answer: 17 fold
